Bridges are numbered along the chain shown (N, C = ends). [ ]: non-standard residue; d: D form. 2Nal = N[C@@H](Cc1ccc2ccccc2c1)C(=O)O; Cit = NC(=O)NCCC[C@H](N)C(=O)O
Target: human CXCR4 (human, UniProt P61073 1-352)
Assay: cell-based or functional assay

Chain of human CXCR4 (P61073 whole entry): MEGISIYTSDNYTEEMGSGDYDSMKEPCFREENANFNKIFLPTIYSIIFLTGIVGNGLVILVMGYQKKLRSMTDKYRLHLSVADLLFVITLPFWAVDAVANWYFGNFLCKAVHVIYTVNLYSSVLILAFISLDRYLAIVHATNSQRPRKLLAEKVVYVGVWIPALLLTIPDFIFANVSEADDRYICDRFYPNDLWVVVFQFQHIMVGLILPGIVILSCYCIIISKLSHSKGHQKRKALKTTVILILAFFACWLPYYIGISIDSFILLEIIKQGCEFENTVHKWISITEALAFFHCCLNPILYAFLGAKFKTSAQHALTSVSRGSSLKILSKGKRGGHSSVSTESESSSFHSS

IC50 (nM) Ca2+ assay (method 2) [nM] | Binder
3.9 | cyclo(YRYCRG[dP]RR[2Nal]CYQK[dP]P) (disulfide 4-11; SMILES N=C(N)NCCC[C@@H]1NC(=O)[C@@H]2CSSC[C@H](NC(=O)[C@H](Cc3ccc4ccccc4c3)NC(=O)[C@H](CCCNC(=N)N)NC(=O)[C@H](CCCNC(=N)N)NC(=O)[C@H]3CCCN3C(=O)CNC1=O)C(=O)N[C@@H](Cc1ccc(O)cc1)C(=O)N[C@@H](CCC(N)=O)C(=O)N[C@@H](CCCCN)C(=O)N1CCC[C@@H]1C(=O)N1CCC[C@H]1C(=O)N[C@@H](Cc1ccc(O)cc1)C(=O)N[C@@H](CCCNC(=N)N)C(=O)N[C@@H](Cc1ccc(O)cc1)C(=O)N2) [Example 72]
19.5 | cyclo(YRHCRG[dP]RR[2Nal]CYQK[dP]P) (disulfide 4-11; SMILES N=C(N)NCCC[C@@H]1NC(=O)[C@@H]2CSSC[C@H](NC(=O)[C@H](Cc3ccc4ccccc4c3)NC(=O)[C@H](CCCNC(=N)N)NC(=O)[C@H](CCCNC(=N)N)NC(=O)[C@H]3CCCN3C(=O)CNC1=O)C(=O)N[C@@H](Cc1ccc(O)cc1)C(=O)N[C@@H](CCC(N)=O)C(=O)N[C@@H](CCCCN)C(=O)N1CCC[C@@H]1C(=O)N1CCC[C@H]1C(=O)N[C@@H](Cc1ccc(O)cc1)C(=O)N[C@@H](CCCNC(=N)N)C(=O)N[C@@H](Cc1c[nH]cn1)C(=O)N2) [Example 70]
2.7 | cyclo(YRICRG[dP]RR[2Nal]CYQK[dP]P) (disulfide 4-11; SMILES CC[C@H](C)[C@@H]1NC(=O)[C@H](CCCNC(=N)N)NC(=O)[C@H](Cc2ccc(O)cc2)NC(=O)[C@@H]2CCCN2C(=O)[C@H]2CCCN2C(=O)[C@H](CCCCN)NC(=O)[C@H](CCC(N)=O)NC(=O)[C@H](Cc2ccc(O)cc2)NC(=O)[C@@H]2CSSC[C@H](NC1=O)C(=O)N[C@@H](CCCNC(=N)N)C(=O)NCC(=O)N1CCC[C@@H]1C(=O)N[C@@H](CCCNC(=N)N)C(=O)N[C@@H](CCCNC(=N)N)C(=O)N[C@@H](Cc1ccc3ccccc3c1)C(=O)N2) [Example 71]

More lines, now with the values behind:

Binder | IC50 (nM) Ca2+ assay (method 2) [nM]
cyclo(YRRCRG[dP]RR[2Nal]CYQK[dP]P) (disulfide 4-11; SMILES N=C(N)NCCC[C@@H]1NC(=O)[C@@H]2CSSC[C@H](NC(=O)[C@H](Cc3ccc4ccccc4c3)NC(=O)[C@H](CCCNC(=N)N)NC(=O)[C@H](CCCNC(=N)N)NC(=O)[C@H]3CCCN3C(=O)CNC1=O)C(=O)N[C@@H](Cc1ccc(O)cc1)C(=O)N[C@@H](CCC(N)=O)C(=O)N[C@@H](CCCCN)C(=O)N1CCC[C@@H]1C(=O)N1CCC[C@H]1C(=O)N[C@@H](Cc1ccc(O)cc1)C(=O)N[C@@H](CCCNC(=N)N)C(=O)N[C@@H](CCCNC(=N)N)C(=O)N2) [Example 69] | 1.8
cyclo(ER[Cit]CRG[dP]RR[2Nal]CYQK[dP]P) (disulfide 4-11; SMILES N=C(N)NCCC[C@@H]1NC(=O)[C@@H]2CSSC[C@H](NC(=O)[C@H](Cc3ccc4ccccc4c3)NC(=O)[C@H](CCCNC(=N)N)NC(=O)[C@H](CCCNC(=N)N)NC(=O)[C@H]3CCCN3C(=O)CNC1=O)C(=O)N[C@@H](Cc1ccc(O)cc1)C(=O)N[C@@H](CCC(N)=O)C(=O)N[C@@H](CCCCN)C(=O)N1CCC[C@@H]1C(=O)N1CCC[C@H]1C(=O)N[C@@H](CCC(=O)O)C(=O)N[C@@H](CCCNC(=N)N)C(=O)N[C@@H](CCCNC(N)=O)C(=O)N2) [Example 68] | 1.1
